Here are results for two molecules from patent US20210206881A1 (Amgen, published 2021).

Assay [1] deals with T1, human B7-related protein 1 (B7RP1) (human, UniProt O75144 19-256, limits assumed).
T1 construct: also called human B7RP1; ICOSLG
T1 sequence (looked up): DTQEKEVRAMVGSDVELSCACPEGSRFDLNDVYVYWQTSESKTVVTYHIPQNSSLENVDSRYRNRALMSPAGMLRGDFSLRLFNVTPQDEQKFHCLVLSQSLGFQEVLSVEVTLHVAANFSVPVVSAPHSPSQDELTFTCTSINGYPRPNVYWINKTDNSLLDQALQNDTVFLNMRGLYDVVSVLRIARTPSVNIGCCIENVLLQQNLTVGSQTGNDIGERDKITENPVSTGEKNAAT
Nature of the assay: KinExA (Kinetic Exclusion Assay). As for the experimental part:
(§1) The binding affinities of the heterodimeric bispecific antibodies P74293 and P74294 to BAFF and B7RP1 were measured by Kinetic Exclusion Assay (KinExA®; Sapidyne Instruments, Boise, Id.). […] In addition, both of these bispecifics have similar binding affinities to cynomolgus monkey BAFF compared to human BAFF and to cynomolgus monkey B7RP1 compared to human B7RP1.
In general terms: In KinExA the mixture passes briefly over coated beads that capture the unbound partner.

The target of the next assay is cynomolgus monkey BAFF (cynomolgus monkey, UniProt A0A2K5V2X4 134-285). Kind of assay: KinExA (Kinetic Exclusion Assay). The method, then:
as §1

Assay [2] concerns the target T2, human B-cell activating factor (BAFF) (human, UniProt Q9Y275 134-285).
T2 construct: Used in KinExA and, as 'human BAFF protein' at 50 ng/ml, in the human B cell proliferation assay; also called human BAFF; TNFSF13B
Nature of the assay: KinExA (Kinetic Exclusion Assay). The method, then: as §1

For the next assay, the target named is T3, cynomolgus monkey B7RP1 (cynomolgus monkey, UniProt A0A2K5TK64 19-256).
T3 sequence: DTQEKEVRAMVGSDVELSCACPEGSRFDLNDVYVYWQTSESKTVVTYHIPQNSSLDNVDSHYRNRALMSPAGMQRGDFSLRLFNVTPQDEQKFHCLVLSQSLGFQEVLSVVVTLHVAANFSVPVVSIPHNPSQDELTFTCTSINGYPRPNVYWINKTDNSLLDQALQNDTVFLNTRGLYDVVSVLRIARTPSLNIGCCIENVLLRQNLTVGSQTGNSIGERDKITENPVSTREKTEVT
Kind of assay: KinExA (Kinetic Exclusion Assay). The method, then:
as §1

Assay [3] addresses B7RP1 used in the cynomolgus monkey T cell proliferation assay. Kind of assay: cell-based or functional assay.
For assay [4], the target named is T4, human B7RP1-Fc fusion protein (human, UniProt O75144 19-256, limits assumed).
T4 sequence (looked up): T1 sequence (looked up)
Nature of the assay: cell-based or functional assay.

The target in assay [5] is BAFF used in the cynomolgus monkey B cell proliferation assay. Kind of assay: cell-based or functional assay.
Assay [6] addresses T2, human B-cell activating factor (BAFF). Kind of assay: cell-based or functional assay.

Where a chain is given by its changes, count along the chain named.

T2 sequence (Q9Y275 134-285 limits assumed): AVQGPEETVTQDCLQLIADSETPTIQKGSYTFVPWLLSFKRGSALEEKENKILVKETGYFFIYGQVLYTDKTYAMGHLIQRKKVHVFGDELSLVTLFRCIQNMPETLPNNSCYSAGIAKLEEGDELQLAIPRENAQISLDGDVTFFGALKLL

B1: P74293 BAFF/B7RP1 bispecific molecule (bispecific antibody, human IgG2, kappa)
heavy: EVQLVESGGGLVQPGGSLRLSCAASGFTFSSYWMSWVRQAPGKGLEWVAYIKQDGNEKYYVDSVKGRFTISRDNAKNSLYLQMNSLRAEDTAVYYCAREGILWFGDLPTFWGQGTLVTVSSASTKGPSVFPLAPCSRSTSESTAALGCLVKDYFPEPVTVSWNSGALTSGVHTFPAVLQSSGLYSLSSVVTVPSSNFGTQTYTCNVDHKPSNTKVDKTVERKCCVECPPCPAPPVAGPSVFLFPPKPKDTLMISRTPEVTCVVVDVSHEDPEVQFNWYVDGVEVHNAKTKPREEQFNSTFRVVSVLTVVHQDWLNGKEYKCKVSNKGLPAPIEKTISKTKGQPREPQVYTLPPSREEMTKNQVSLTCLVKGFYPSDIAVEWESNGQPENNYKTTPPMLDSDGSFFLYSKLTVDKSRWQQGNVFSCSVMHEALHNHYTQKSLSLSPGKGGGGGLPGCKWDLLIKQWVCDPLGSGSATGGSGSVASSGSGSATHLLPGCKWDLLIKQWVCDPL
light: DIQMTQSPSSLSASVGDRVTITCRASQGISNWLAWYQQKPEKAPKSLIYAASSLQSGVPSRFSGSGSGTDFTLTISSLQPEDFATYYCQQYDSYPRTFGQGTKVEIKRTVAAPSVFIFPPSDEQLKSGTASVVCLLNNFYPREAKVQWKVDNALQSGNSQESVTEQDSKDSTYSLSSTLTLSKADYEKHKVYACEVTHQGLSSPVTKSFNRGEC
notes: also called anti-BAFF/B7RP1 bispecific P74293
What is called Kd is the constant that tells how readily two partners part at equilibrium. As to B1, the Kd was determined as 38 pM in assay [1], 22.3 pM with cynomolgus monkey BAFF, 29 pM in assay [2] and 49.4 pM with cynomolgus monkey B7RP1. For the same molecule, the “IC50 (nM) for inhibition of B7RP1-mediated cynomolgus monkey T cell proliferation” value in assay [3] worked out at 0.29 nM. Further, the “IC50 (nM) for inhibition of B7RP1-mediated human T cell proliferation” value in assay [4] came out at 1.36 nM. The “IC50 (nM) for inhibition of BAFF-mediated cynomolgus monkey B cell proliferation” value in assay [5] was determined as 1.6 nM. Besides, the “IC50 (nM) for inhibition of BAFF-mediated human B cell proliferation” value in assay [6] is 0.86 nM.

B2: P74294 BAFF/B7RP1 bispecific molecule (bispecific antibody, human IgG2, kappa)
heavy: B1 heavy with V482S
light: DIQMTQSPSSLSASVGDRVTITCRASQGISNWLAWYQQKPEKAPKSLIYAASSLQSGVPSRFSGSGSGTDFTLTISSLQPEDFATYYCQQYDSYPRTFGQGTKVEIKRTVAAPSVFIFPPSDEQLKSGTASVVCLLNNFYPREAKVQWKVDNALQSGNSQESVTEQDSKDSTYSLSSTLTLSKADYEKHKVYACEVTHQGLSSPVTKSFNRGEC
notes: variant of P71619 with a modified linker
For the molecule B2, the Kd in assay [1] came to 41 pM; with cynomolgus monkey BAFF, 17.4 pM; in assay [2] it was 37 pM; with cynomolgus monkey B7RP1, 45.2 pM. In addition, the “IC50 (nM) for inhibition of B7RP1-mediated human T cell proliferation” value in assay [4] stood at 0.98 nM. Moreover, the “IC50 (nM) for inhibition of BAFF-mediated cynomolgus monkey B cell proliferation” value in assay [5] is 1.8 nM. In assay [6], the “IC50 (nM) for inhibition of BAFF-mediated human B cell proliferation” value was 0.96 nM.
